Data published in patent publication US20230287117A1 (published 2023).

How the values were obtained:
Test in all cases: SPR steady state
His-tagged human FcyRIIB = biological target: T1, His-tagged human FcyRIIB (human, UniProt P31994 46-217)
T1 chain: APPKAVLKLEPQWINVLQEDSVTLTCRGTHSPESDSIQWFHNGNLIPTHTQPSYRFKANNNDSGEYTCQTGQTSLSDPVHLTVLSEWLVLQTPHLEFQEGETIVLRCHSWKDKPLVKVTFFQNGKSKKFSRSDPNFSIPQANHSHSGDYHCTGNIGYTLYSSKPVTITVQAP

[1] = biological target: His-tagged human FcyRIIIA (human, UniProt P08637 17-208)
His-tagged human FcyRIIA = biological target: T2, His-tagged human FcyRIIA (human, UniProt P12318 36-218)
T2 chain: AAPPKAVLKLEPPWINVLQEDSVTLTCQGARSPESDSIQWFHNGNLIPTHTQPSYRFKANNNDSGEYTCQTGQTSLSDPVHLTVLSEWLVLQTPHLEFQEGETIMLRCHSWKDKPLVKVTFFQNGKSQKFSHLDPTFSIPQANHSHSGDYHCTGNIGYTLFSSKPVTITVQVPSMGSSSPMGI

His-tagged human FcyRIIIA, sequence (P08637 17-208): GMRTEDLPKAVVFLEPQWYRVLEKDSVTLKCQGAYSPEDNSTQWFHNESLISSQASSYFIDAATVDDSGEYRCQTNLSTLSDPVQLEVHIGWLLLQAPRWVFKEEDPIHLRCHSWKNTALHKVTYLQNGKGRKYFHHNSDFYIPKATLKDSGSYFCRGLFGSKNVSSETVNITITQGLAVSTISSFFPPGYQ

B1: Control Antibody A (Lot- L2), 9F7_VH_IgG4 (antibody)
constant: ASTKGPSVFPLAPCSRSTSESTAALGCLVKDYFPEPVTVSWNSGALTSGVHTFPAVLQSSGLYSLSSVVTVPSSSLGTKTYTCNVDHKPSNTKVDKRVESKYGPPCPSCPAPEFLGGPSVFLFPPKPKDTLMISRTPEVTCVVVDVSQEDPEVQFNWYVDGVEVHNAKTKPREEQFNSTYRVVSVLTVLHQDWLNGKEYKCKVSNKGLPSSIEKTISKAKGQPREPQVYTLPPSQEEMTKNQVSLTCLVKGFYPSDIAVEWESNGQPENNYKTTPPVLDSDGSFFLYSRLTVDKSRWQEGNVFSCSVMHEALHNRFTQKSLSLSLGK
Work on B1 yielded a Kd (His-tagged human FcyRIIB) of 2.2 µM, a Kd [1] of 140 µM and a Kd (His-tagged human FcyRIIA) of 16.8 µM.
